Reference: patent US11648295B2, “Methods of treating diseases resulting from a maladapted stress response” (Cortene Inc., priority 2016, dated 2023)
No end group written: not given here.

How the values were obtained:
CRFR1 [1] = biological target: T1, CRFR1 (Homo sapiens, UniProt P34998); experiment: in vitro binding potential for CRFR1 (table of FIG. 10); assay type: biochemical
T1 sequence (P34998 24-415): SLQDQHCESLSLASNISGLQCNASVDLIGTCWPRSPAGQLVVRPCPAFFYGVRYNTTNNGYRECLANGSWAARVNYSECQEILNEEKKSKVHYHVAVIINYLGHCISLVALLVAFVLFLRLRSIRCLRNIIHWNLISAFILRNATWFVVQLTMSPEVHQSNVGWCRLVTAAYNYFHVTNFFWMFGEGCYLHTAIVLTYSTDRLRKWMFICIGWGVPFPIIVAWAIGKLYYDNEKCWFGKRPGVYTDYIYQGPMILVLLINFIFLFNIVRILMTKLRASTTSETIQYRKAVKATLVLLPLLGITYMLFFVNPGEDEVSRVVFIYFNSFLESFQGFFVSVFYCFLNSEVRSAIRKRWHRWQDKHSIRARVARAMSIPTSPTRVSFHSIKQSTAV

CRFR2 [2] = biological target: T2, CRFR2 (Homo sapiens, UniProt Q13324); experiment: in vitro potency / binding potential for CRFR2 (table of FIG. 10); assay type: biochemical
T2 sequence (Q13324 1-411): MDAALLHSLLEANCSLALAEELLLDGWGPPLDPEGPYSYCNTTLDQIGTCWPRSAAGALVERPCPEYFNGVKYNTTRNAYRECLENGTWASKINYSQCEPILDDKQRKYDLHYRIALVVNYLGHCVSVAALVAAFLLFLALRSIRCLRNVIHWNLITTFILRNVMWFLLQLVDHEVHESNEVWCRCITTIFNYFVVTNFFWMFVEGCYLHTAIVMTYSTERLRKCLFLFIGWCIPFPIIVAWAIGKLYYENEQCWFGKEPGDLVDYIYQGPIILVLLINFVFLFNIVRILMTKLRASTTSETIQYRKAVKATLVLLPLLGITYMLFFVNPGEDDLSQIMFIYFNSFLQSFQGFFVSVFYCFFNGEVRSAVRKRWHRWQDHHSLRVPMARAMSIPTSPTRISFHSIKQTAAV

[3] = tested on: stable congestive heart failure patients; details: escalating i.v. infusion over 3 hours; cited from earlier work
CRFR1 [4] = biological target: CRFR1 (Homo sapiens, UniProt P34998); experiment: EC50, nmol (% of Emax) | CRFR1
Text: (§1) Table printed on a drawing sheet, FIGURE 10
(§2) Title: Pharmacokinetic Parameters
Head of the field: EC50, nmol (% of Emax) | CRFR1
(§3) Footnotes: FIGURE 10: Effect of maximum or steady state plasma concentrations (Cmax or Css) of various CRFR2 agonists (CT38, SCP or Ucn2), dosed by subcutaneous bolus (triangles) or intravenous infusion (circles), on the maximum heart rate (HRmax) in healthy subjects (solid lines) or stable congestive heart failure patients (dashed lines). The table provides comparative pharmacokinetic parameters for the CRFR2 agonists.
(§4) That is, for strongly potent CRFR2 agonists and relative intermediate plasma concentrations, the loss of the ability to induce a heart rate increase via continuous dosing, was driven by the duration of dosing, and appeared to occur with different selective CRFR2 agonists (e.g., Ucn2, stresscopin), irrespective of the condition of the human subject.
(§5) First copying reader's note: Each EC50 cell holds the EC50 in nmol with the % of Emax in brackets after it.
Where the first naming reader finds the target: head: EC50, nmol (% of Emax) | CRFR1

CRFR2 [5] = biological target: T2, CRFR2; experiment: EC50, nmol (% of Emax) | CRFR2
Text: as §1, §2
Head of the field: EC50, nmol (% of Emax) | CRFR2
as §3, §4, §5
Where the first naming reader finds the target: head: EC50, nmol (% of Emax) | CRFR2

Substance: Ucn3: endogenous CRFR2-selective agonist peptide, used as a proxy for SCP (FTLSLDVPTNIMNLLFNIAKAKNLRAQAAANAHLMAQI) [listing 1 of 2 here]
- in vitro binding potential for CRFR1 (CRFR1 [1]): weak binding potential for CRFR1 (minimal, at moderate concentrations)
- in vitro binding potential for CRFR2 (CRFR2 [2]): strong binding potential for CRFR2 (maximal, at low concentrations)

Substance: stresscopin (FTLSLDVPTNIMNLLFNIAKAKNLRAQAAANAHLMAQI; ends and bridges not checked; UniProt Q969E3 120-157, looked up)
- pattern of effect on heart rate versus Ucn2 [3]: very similar

Substance: Ucn3: endogenous CRFR2-selective agonist peptide, used as a proxy for SCP (FTLSLDVPTNIMNLLFNIAKAKNLRAQAAANAHLMAQI) [listing 2 of 2 here]
- EC50, nmol (% of Emax) | CRFR1 (CRFR1 [4]): > 1000 (10) nmol (% of Emax)
- EC50, nmol (% of Emax) | CRFR2 (CRFR2 [5]): > 100 (60) nmol (% of Emax)
